The values below come from US20070032640A1, “Cytokine receptor” (priority 2001, published 2007).

Positions count from the first letter of the chain named.

For assay [1], the target named is T1, soluble, recombinant IGF-1 receptor (Homo sapiens, UniProt P08069).
T1 construct: soluble, recombinant IGF-1 receptor
As to the kind of experiment: Solid phase receptor binding assay, IGF-1R/IGF-1 system (specificity). The settings on record: Eu-IGF-1 binding to IGF-1 receptor, FIG. 7B. On the procedure:
(§1) Solid phase receptor binding assays. Ten compounds selected from Table 3 (NCI compounds) were tested for their ability to modulate the binding of europium-labelled IL-6 to soluble, recombinant IL-6 receptor (A) or the binding of europium-labelled IGF-1 to soluble, recombinant IGF-1 receptor (B) in a microplate-based format. Binding to the receptor is measured by time resolved fluorescence (TRF) as a % of control.
In order to examine specificity, the compounds were also assayed against the IGF receptor system in an identical manner.

Assay [2] addresses T2, human soluble interleukin 6 receptor α-chain (hsIL6Rα) and hsgp130 (Homo sapiens, UniProt P08887).
T2 construct: human soluble interleukin 6 receptor α-chain (hsIL6Rα)
T2 sequence (P08887 20-355 limits assumed): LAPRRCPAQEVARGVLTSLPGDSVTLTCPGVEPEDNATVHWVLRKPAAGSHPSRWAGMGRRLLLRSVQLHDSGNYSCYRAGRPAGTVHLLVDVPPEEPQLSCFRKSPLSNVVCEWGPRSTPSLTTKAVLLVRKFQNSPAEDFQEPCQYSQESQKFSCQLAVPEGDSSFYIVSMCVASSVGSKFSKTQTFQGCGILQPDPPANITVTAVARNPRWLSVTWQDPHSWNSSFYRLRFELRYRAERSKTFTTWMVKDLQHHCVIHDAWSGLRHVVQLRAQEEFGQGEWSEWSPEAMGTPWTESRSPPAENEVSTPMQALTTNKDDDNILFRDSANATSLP
As to the kind of experiment: High capacity screening assay: binding of europium-labelled human IL6 to hsIL6Rα and immobilised hsgp130. The settings on record: Eu-IL-6 binding by time resolved fluorescence as % of control, FIG. 7A.
Excerpt: Compounds designed according to the methods of the present invention may be assessed by a number of in vitro and in vivo assays of hormone function. For example, the identification of IL-6 receptor antagonists of may be undertaken using a solid-phase receptor binding assay. Potential antagonists may be screened for their ability to inhibit the binding of europium-labelled IL-6 receptor ligands to soluble, recombinant IL-6 receptor in a microplate-based format. Europium is a lanthanide fluorophore, the presence of which can be measured using time-resolved fluorometry. The sensitivity of this assay matches that achieved by radioisotopes, measurement is rapid and is performed in a microplate format to allow high-sample throughput, and the approach is gaining wide acceptance as the method of choice in the development of screens for receptor agonists/antagonists (see Apell et al., J. Biomolec. Screening 3:19-27, 1998: Inglese et al., Biochemistry 37:2372-2377, 1998).
as §1
Ten of the compounds listed in Table 3 were tested for their ability to modulate binding of IL-6 to IL-6R/gp130. The high throughput screening assay used for this purpose detects the binding of europium-labelled human IL6 (Eu-hIL6) to human soluble interleukin 6 receptor α-chain (hsIL6Rα) and hsgp130 immobilised on the surface of wells of a microtitre plate. The protocol followed was essentially as follows: […]
The fractions were assayed for europium by diluting 10,000-fold in 200 μL of DELFIA enhancement solution and measuring europium fluorescence. […] The concentration of Eu-IL6 was determined from the absorbance at 280 nm (0.5 AU/mg/mL) and the labelling stoichiometry based on a molecular mass of 21,300. […]

A further assay concerns the target T3, IL-6R (Homo sapiens, UniProt P08887).
T3 construct: endogenous in cells; host or cells: human myeloma U266 cells
T3 sequence (P08887 20-468): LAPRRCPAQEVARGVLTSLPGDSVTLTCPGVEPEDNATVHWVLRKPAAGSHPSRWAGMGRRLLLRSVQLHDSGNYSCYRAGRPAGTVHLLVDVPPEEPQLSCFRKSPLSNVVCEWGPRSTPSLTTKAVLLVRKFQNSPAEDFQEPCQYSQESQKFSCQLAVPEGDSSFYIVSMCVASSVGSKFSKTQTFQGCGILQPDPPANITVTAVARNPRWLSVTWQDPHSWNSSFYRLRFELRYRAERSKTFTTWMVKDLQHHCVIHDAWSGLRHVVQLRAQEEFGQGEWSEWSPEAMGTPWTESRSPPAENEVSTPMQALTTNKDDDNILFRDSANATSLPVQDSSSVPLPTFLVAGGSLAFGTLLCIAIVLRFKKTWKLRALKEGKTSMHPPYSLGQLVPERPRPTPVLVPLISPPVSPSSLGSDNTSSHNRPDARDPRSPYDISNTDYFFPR
The settings on record: human myeloma U266 cells, low-affinity binding; cited from earlier work.

A further assay relates to IL-6. The settings on record: cited from earlier work; for Binding: IL-6 binding of IL-6R mutant, relative to wild type.
Another assay has as its system gp130 signalling. The settings on record: cited from earlier work; for Signalling: gp130 signalling of IL-6R mutant, relative to wild type.

T1 sequence (P08069 31-736): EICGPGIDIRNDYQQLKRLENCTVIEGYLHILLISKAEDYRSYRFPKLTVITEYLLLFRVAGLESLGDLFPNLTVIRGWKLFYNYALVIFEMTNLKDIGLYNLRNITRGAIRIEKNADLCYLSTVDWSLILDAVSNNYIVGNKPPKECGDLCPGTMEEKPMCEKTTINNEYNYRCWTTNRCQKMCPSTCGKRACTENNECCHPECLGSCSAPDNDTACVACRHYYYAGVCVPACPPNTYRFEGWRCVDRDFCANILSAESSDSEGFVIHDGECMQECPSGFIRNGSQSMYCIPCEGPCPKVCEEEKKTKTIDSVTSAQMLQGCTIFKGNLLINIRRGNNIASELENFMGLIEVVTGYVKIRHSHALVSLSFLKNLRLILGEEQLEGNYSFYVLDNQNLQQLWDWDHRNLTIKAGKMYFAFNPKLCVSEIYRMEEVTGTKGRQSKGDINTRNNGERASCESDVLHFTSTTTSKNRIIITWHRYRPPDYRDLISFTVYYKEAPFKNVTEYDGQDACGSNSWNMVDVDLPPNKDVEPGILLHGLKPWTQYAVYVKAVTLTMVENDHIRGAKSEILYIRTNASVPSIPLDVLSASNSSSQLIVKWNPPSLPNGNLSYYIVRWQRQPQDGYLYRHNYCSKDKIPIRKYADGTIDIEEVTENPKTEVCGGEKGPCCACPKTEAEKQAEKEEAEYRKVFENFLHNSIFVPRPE
T1 sequence (P08069 741-935): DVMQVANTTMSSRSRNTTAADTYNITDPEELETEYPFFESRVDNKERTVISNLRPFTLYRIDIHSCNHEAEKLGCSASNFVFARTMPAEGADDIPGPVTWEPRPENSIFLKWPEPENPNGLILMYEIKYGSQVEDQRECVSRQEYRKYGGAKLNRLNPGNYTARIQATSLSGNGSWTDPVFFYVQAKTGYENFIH

For `O=C(C[n+]1ccc2ccccc2c1)c1ccc(-c2ccccc2)cc1` [compound 17791, 1-[1,1′-biphenyl]-4-yl-2-(2^5-isoquinolin-2-yl)ethanone], in assay [1], the “specificity against the IGF-1R/IGF-1 system” value (from here on “specificity”) was “specifically”. In addition, the “effect on IL-6 binding to IL-6R/gp130 (antagonist or agonist)” value (“effect on IL-6 binding to IL-6R/gp130” below) in assay [2] is on record as “agonists”.
With `Nc1c(C(=O)Nc2ccc3c(c2)C(=O)c2ccccc2C3=O)ccc2c1C(=O)c1ccccc1C2=O` [compound 39914, 1-amino-N-(9,10-dioxo-9,10-dihydro-2-anthracenyl)-9,10-dioxo-9,10-dihydro-2-anthracenecarboxamide], the “specificity” value in assay [1] is “specifically”. In assay [2], the “effect on IL-6 binding to IL-6R/gp130” value is “antagonist”.
For the molecule `O=C(O)c1ccccc1C(=O)Nc1cc2c(cc1Br)-c1ccccc1C2=O` [compound 56681, 2-(((3-bromo-9-oxo-9H-fluoren-2-yl)amino)carbonyl)benzoic acid], the “specificity” value in assay [1] is “specifically”. In assay [2], the “effect on IL-6 binding to IL-6R/gp130” value is listed as “agonists”.
With “IL-6: multifunctional cytokine, natural ligand of the IL-6 receptor”, the Kd with IL-6R is around 1 nM.

B1: C192: IL-6R with C192 mutated to alanine (protein, UniProt P08887 20-468, looked up, variant C192A)
Interleukin-6 receptor …: T3 sequence (P08887 20-468) with C192A
Take B1: the “binding of IL-6 to IL-6R (in words)” value in the assay on IL-6 (mutated to alanine) was “slightly increased”. In the assay with gp130 signalling (mutated to alanine), the “signalling (in words)” value is “slightly increased”.

B2: F134: IL-6R F-L mutation at F134 (protein, UniProt P08887 20-468, looked up, variant F134L)
Interleukin-6 receptor …: T3 sequence (P08887 20-468) with F134L
Take B2: in the assay on IL-6, the Binding is above 100%. Also, the Signalling in the assay on gp130 signalling was 70%.

B3: E278: IL-6R EF-AI double mutant at E278 and F279 (protein, UniProt P08887 20-468, looked up, variant E278A F279I)
Interleukin-6 receptor …: T3 sequence (P08887 20-468) with E278A, F279I
As to B3, the Binding with IL-6 is listed as 0%.

B4: F-Y mutant: IL-6R F-Y mutant at F168 (protein, UniProt P08887 20-468, looked up, variant F168Y)
Interleukin-6 receptor …: T3 sequence (P08887 20-468) with F168Y
With B4, in the assay on gp130 signalling, the Signalling entry is given as “mutant signals at 50%”.

B5: R231: IL-6R RL-SI double mutant at R231 and L232 (protein, UniProt P08887 20-468, looked up, variant R231S L232I)
Interleukin-6 receptor …: T3 sequence (P08887 20-468) with R231S, L232I
With B5, the Binding with IL-6 is 0%.

B6: D262: IL-6R D-G mutant at D262 (protein, UniProt P08887 20-468, looked up, variant D262G)
Interleukin-6 receptor …: T3 sequence (P08887 20-468) with D262G
With B6, in the assay on IL-6, the Binding is on record as 30%. Besides, the Signalling with gp130 signalling was below 10%.

B7: H261: IL-6R H-I mutation at H261 (protein, UniProt P08887 20-468, looked up, variant H261I)
Interleukin-6 receptor …: T3 sequence (P08887 20-468) with H261I
B7: the Binding with IL-6 was 115%. Further, in the assay with gp130 signalling, the Signalling is 10%.

B8: W214: IL-6R W-Q mutant at W214 (protein, UniProt P08887 20-468, looked up, variant W214Q)
Interleukin-6 receptor …: T3 sequence (P08887 20-468) with W214Q
On to B8, for which the Binding in the assay on IL-6 is 70%. For the same molecule, in the assay on gp130 signalling, the Signalling was above 150%.

B9: P162: IL-6R PE-LQ double mutant at P162 and E163, loop L3 (protein, UniProt P08887 20-468, looked up, variant P162L E163Q)
Interleukin-6 receptor …: T3 sequence (P08887 20-468) with P162L, E163Q
For B9, the Binding in the assay with IL-6 was below 10%.

B10: V259: IL-6R V-N mutant at V259 (protein, UniProt P08887 20-468, looked up, variant V259N)
Interleukin-6 receptor …: T3 sequence (P08887 20-468) with V259N
With B10, the Binding in the assay on IL-6 is 40%. Further, the Signalling with gp130 signalling is recorded as 140%.

B11: I260: IL-6R I-D mutation at I260 (protein, UniProt P08887 20-468, looked up, variant I260D)
Interleukin-6 receptor …: T3 sequence (P08887 20-468) with I260D
Regarding B11, in the assay with IL-6, the Binding is reported as 0%.
